B1: AUP1 (parent)
chain: FCASTRLPPTPLLLFPEEEATNGR

This note sets out measurements from the supplement of paper PMC10567573.
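Further: lentivirally expressed fusions sorted by FACS into six bins by GFP to DsRed ratio, PSI derived from sequencing read proportions per bin multiplied by bin number.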

In this data set the parent is B1. Kind of data set: protein stability index of a GFP-peptide fusion (GPS, HEK-293T) (PSI 1-6); higher = more stable. As to conditions: c terminus: a fixed tail appended.
FHASTRLPPTPLLLFPEEEATNGR [C2H]: the protein stability index came to 2.17.
FEASTRLPPTPLLLFPEEEATNGR [C2E]: the protein stability index turned out to be 4.91.
FYASTRLPPTPLLLFPEEEATNGR [C2Y]: the protein stability index was 3.31.
On to FQASTRLPPTPLLLFPEEEATNGR [C2Q], for which the protein stability index stood at 3.58.
For FGASTRLPPTPLLLFPEEEATNGR [C2G], the protein stability index was 4.33.
In the case of FLASTRLPPTPLLLFPEEEATNGR [C2L], the protein stability index amounted to 3.39.
In the case of FDASTRLPPTPLLLFPEEEATNGR [C2D], the protein stability index turned out to be 4.81.
For FRASTRLPPTPLLLFPEEEATNGR [C2R], the protein stability index amounted to 3.81.
As to FAASTRLPPTPLLLFPEEEATNGR [C2A], the protein stability index turned out to be 3.42.
Turning to FCASTRLPPTPLLLFPEEEACNGR [T21C], the protein stability index stood at 3.05.
On to FCASTRLPPTPLLLFPEEEAMNGR [T21M], for which the protein stability index is 2.46.
For the variant FCASTRLPPTPLLLFPEEEAINGR [T21I], the protein stability index came out at 2.79.
Regarding FCASTRLPPTPLLLFPEEEAGNGR [T21G], the protein stability index is 2.68.
Consider FCASTRLPPTPLLLFPEEEAYNGR [T21Y], for which the protein stability index came to 2.65.
For FCASTRLPPTPLLLFPEEEAVNGR [T21V], the protein stability index is 2.7.
Regarding FCASTRLPPTPLLLFPEEEAANGR [T21A], the protein stability index was 2.6.
For FCASTRLPPTPLLLFPEEEAWNGR [T21W], the protein stability index was 2.15.
In the case of FCASTRLPPTPLLLFPEEEAFNGR [T21F], the protein stability index worked out at 2.28.
Turning to FCASTRLPPTPLLLFPEEEADNGR [T21D], the protein stability index came to 3.35.
Consider FCASTRLPPTPLLLFPCEEATNGR [E17C], for which the protein stability index is 1.52.
Turning to FCASTRLPPTPLLLFPVEEATNGR [E17V], the protein stability index amounted to 2.09.
In the case of FCASTRLPPTPLLLFPNEEATNGR [E17N] it was 2.55; in that of FCASTRLPPTPLLLFPQEEATNGR [E17Q], 2.28; in that of FCASTRLPPTPLLLFPAEEATNGR [E17A], 1.96.
In the case of FCASTRLPPTPLLLFPGEEATNGR [E17G] it was 2.31.
For the variant FCASTRLPPTPLLLFPLEEATNGR [E17L], the protein stability index is 1.5.
In the case of FCASTRLPPTPLLLFPENEATNGR [E18N], the protein stability index was 2.37.
In the case of FCASTRLPPTPLLLFPELEATNGR [E18L] it was 2.54; in that of FCASTRLPPTPLLLFPEREATNGR [E18R], 2.23.
On to FCASTRLPPTPLLLFPEFEATNGR [E18F], for which the protein stability index is 1.82.
For the variant FCASTRLPPTPLLLFPEQEATNGR [E18Q], the protein stability index is 2.72.
To FCASTRLPPTPLLLFPEKEATNGR [E18K] belongs 2.32.
In the case of FCASTRLPPTPLLLFPEAEATNGR [E18A] it was 2.19.
As to FCASTRLPPTPLLLFPEHEATNGR [E18H], the protein stability index worked out at 2.15.
Turning to FCANTRLPPTPLLLFPEEEATNGR [S4N], the protein stability index is 2.94.
Regarding FCAYTRLPPTPLLLFPEEEATNGR [S4Y], the protein stability index was determined as 2.28.
In the case of FCAETRLPPTPLLLFPEEEATNGR [S4E] it was 3.52; in that of FCAFTRLPPTPLLLFPEEEATNGR [S4F], 2.54; in that of FCATTRLPPTPLLLFPEEEATNGR [S4T], 2.76.
FCADTRLPPTPLLLFPEEEATNGR [S4D]: the protein stability index worked out at 3.6.
As to FCAGTRLPPTPLLLFPEEEATNGR [S4G], the protein stability index came out at 2.85.
In the case of FCAQTRLPPTPLLLFPEEEATNGR [S4Q], the protein stability index was 3.36.
As to FCAWTRLPPTPLLLFPEEEATNGR [S4W], the protein stability index was found to be 3.38.
Take FCAITRLPPTPLLLFPEEEATNGR [S4I]: the protein stability index is 2.49.
In the case of FCALTRLPPTPLLLFPEEEATNGR [S4L], the protein stability index came out at 2.85.
In the case of FCASTRLPPTPQLLFPEEEATNGR [L12Q], the protein stability index stood at 3.7.
In the case of FCASTRLPPTPDLLFPEEEATNGR [L12D] it was 3.72.
For FCASTRLPPTPILLFPEEEATNGR [L12I], the protein stability index was found to be 2.58.
To FCASTRLPPTPCLLFPEEEATNGR [L12C] belongs 2.95; to FCASTRLPPTPNLLFPEEEATNGR [L12N], 3.35; to FCASTRLPPTPFLLFPEEEATNGR [L12F], 3.16.
Take FCASTRLPPTPKLLFPEEEATNGR [L12K]: the protein stability index is 3.6.
For FCASTRLPPTPVLLFPEEEATNGR [L12V], the protein stability index came out at 3.31.
With FCASTRLPPTPLRLFPEEEATNGR [L13R], the protein stability index was determined as 3.45.
On to FCASTRLPPTPLFLFPEEEATNGR [L13F], for which the protein stability index came out at 2.18.
As for FCASTRLPPTPLHLFPEEEATNGR [L13H], the protein stability index turned out to be 3.4.
In the case of FCASTRLPPTPLWLFPEEEATNGR [L13W] it was 1.59; in that of FCASTRLPPTPLDLFPEEEATNGR [L13D], 3.94.
On to FCASTRLPPTPLYLFPEEEATNGR [L13Y], for which the protein stability index turned out to be 2.62.
To FCASTRLPPTPLQLFPEEEATNGR [L13Q] belongs 3.32.
In the case of FCASTRLPPTPLELFPEEEATNGR [L13E] it was 3.86; in that of FCASTRLPPTPLMLFPEEEATNGR [L13M], 3.15.
To FCASTRLPPTPLNLFPEEEATNGR [L13N] belongs 3.12; to FCASKRLPPTPLLLFPEEEATNGR [T5K], 2.64.
FCASSRLPPTPLLLFPEEEATNGR [T5S]: the protein stability index was determined as 2.64.
On to FCASDRLPPTPLLLFPEEEATNGR [T5D], for which the protein stability index was 3.44.
To FCASPRLPPTPLLLFPEEEATNGR [T5P] belongs 3.16; to FCASIRLPPTPLLLFPEEEATNGR [T5I], 2.22.
As to FCASTRLPHTPLLLFPEEEATNGR [P9H], the protein stability index came out at 2.56.
Consider FCASTRLPFTPLLLFPEEEATNGR [P9F], for which the protein stability index was found to be 1.58.
As to FCASTRLPLTPLLLFPEEEATNGR [P9L], the protein stability index was 2.11.
For the variant FCASTRLPMTPLLLFPEEEATNGR [P9M], the protein stability index was found to be 1.84.
In the case of FCASTRLPQTPLLLFPEEEATNGR [P9Q] it was 2.62.
Take FCASTRLPTTPLLLFPEEEATNGR [P9T]: the protein stability index was found to be 2.46.
FCASTRLPPTPLLLFPEEEATLGR [N22L]: the protein stability index stood at 2.19.
With FCASTRLPPTPLLLFPEEEATVGR [N22V], the protein stability index was 2.16.
As for FCASTRLPPTPLLLFPEEEATFGR [N22F], the protein stability index was found to be 2.18.
On to FCASTRLPPTPLLLFPEEEATHGR [N22H], for which the protein stability index worked out at 2.95.
In the case of FCASTRLPPTPLLLFPEEEATYGR [N22Y], the protein stability index stood at 2.82.
On to FCASTRLPPTPLLLFPEEDATNGR [E19D], for which the protein stability index came to 2.68.
As for FCASTRLPPTPLLLFPEEKATNGR [E19K], the protein stability index was 2.32.
For the variant FCASTRLPPTPLLLFPEEQATNGR [E19Q], the protein stability index is 2.94.
Take FCASTRLPPTPLLLFPEEMATNGR [E19M]: the protein stability index is 2.08.
In the case of FCASTRLPPTPLLLFPEEYATNGR [E19Y] it was 2.69; in that of FCASTRLPPTPLLLFPEEAATNGR [E19A], 2.74; in that of FCASTRLPPTPLLLFPEEPATNGR [E19P], 2.38.
In the case of FCASTRLPPTPLLLFPEEVATNGR [E19V] it was 2.33.
To FCASTRLPPTPLLLFPEELATNGR [E19L] belongs 2.19; to FCASTRLPPTPLLLFPEESATNGR [E19S], 2.31.
As for FCASTRLPPTPLLLFPEEERTNGR [A20R], the protein stability index stood at 2.77.
In the case of FCASTRLPPTPLLLFPEEEVTNGR [A20V] it was 2.7.
With FCASTRLPPTPLLLFPEEEITNGR [A20I], the protein stability index is 2.3.
To FCASTRLPPTPLLLFPEEEKTNGR [A20K] belongs 2.93.
In the case of FCASTRLPPTPLLLFPEEEWTNGR [A20W], the protein stability index is 2.15.
